Experimental data from patent publication US20030171278A1 (Genentech, published 2003).
Bridges are numbered along the chain shown (N, C = ends). Where no end group is shown, it is not given here.

Assays:
[1] = molecular target: T1, HER2 extracellular domain (HER2-ECD) (human, UniProt P04626 23-652); test: phage ELISA, block of 1.1FI phage binding to immobilized HER2-ECD
T1 construct: extracellular domain; also called immobilized HER2; extracellular domain of Erb2
Protocol: HER2-ECD was immobilized directly to Maxisorp plates (Nunc) in 50 mM ammonium bicarbonate, pH 9.3, using 5 μg/ml, overnight at 4° C. Wells were blocked using PBS containing 1% BSA (PBS-BSA) for 1 h at 25° C. […] The microtiter plate was washed with PBS containing 0.05% Tween20 (PBS-Tween) and the phage bound to HER2-ECD were detected with an anti-gVIII/HRP monoclonal antibody conjugate (Amersham Pharmacia Biotech).

[2] = molecular target: T1, HER2 extracellular domain (HER2-ECD); test: phage binding assay, immobilized HER2-ECD
HER3 = molecular target: T2, HER3 (UniProt P21860 20-643, limits assumed); test: phage binding assay on immobilized protein
T2 construct: Called 'closely related HER3'
T2 sequence (P21860 20-643 limits assumed): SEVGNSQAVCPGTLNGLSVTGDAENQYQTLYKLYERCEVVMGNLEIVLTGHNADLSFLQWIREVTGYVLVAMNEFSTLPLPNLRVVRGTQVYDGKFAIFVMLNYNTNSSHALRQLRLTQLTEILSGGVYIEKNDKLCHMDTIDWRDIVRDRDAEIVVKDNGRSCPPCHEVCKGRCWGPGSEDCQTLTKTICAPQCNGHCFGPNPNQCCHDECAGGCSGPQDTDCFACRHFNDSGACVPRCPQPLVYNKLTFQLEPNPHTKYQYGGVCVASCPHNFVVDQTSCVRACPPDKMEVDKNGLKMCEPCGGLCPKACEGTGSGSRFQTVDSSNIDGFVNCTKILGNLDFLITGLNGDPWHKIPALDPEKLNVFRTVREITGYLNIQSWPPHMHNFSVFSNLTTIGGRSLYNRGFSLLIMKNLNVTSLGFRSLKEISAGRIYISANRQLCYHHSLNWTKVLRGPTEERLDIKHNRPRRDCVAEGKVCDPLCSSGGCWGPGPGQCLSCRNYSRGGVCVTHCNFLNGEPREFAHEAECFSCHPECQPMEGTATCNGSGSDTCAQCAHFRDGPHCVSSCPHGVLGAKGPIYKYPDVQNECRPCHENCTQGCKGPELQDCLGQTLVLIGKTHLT

HER4 = molecular target: T3, HER4 (UniProt Q15303 26-651, limits assumed); test: phage binding assay on immobilized protein
T3 construct: Called 'closely related; HER4'
T3 sequence (looked up): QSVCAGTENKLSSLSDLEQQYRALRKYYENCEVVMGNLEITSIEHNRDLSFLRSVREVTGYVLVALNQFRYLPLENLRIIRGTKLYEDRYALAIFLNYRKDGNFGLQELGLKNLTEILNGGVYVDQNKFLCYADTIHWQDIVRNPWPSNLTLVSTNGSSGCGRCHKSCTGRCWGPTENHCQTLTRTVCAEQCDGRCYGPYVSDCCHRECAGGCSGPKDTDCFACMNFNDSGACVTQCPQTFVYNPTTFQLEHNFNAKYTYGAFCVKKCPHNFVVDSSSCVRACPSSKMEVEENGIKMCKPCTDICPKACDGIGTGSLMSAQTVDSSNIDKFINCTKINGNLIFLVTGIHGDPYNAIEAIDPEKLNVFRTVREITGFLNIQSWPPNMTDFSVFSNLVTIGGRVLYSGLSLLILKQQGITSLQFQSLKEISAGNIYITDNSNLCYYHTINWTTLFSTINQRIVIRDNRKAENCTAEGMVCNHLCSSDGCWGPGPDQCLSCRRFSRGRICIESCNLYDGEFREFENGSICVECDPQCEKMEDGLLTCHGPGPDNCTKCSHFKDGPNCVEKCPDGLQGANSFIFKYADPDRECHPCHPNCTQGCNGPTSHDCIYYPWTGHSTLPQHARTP

BSA = molecular target: T4, BSA (UniProt P02769 25-607); test: phage binding assay on immobilized protein
T4 construct: Control coating protein; also called immobilized BSA
T4 sequence (P02769 25-607 limits assumed): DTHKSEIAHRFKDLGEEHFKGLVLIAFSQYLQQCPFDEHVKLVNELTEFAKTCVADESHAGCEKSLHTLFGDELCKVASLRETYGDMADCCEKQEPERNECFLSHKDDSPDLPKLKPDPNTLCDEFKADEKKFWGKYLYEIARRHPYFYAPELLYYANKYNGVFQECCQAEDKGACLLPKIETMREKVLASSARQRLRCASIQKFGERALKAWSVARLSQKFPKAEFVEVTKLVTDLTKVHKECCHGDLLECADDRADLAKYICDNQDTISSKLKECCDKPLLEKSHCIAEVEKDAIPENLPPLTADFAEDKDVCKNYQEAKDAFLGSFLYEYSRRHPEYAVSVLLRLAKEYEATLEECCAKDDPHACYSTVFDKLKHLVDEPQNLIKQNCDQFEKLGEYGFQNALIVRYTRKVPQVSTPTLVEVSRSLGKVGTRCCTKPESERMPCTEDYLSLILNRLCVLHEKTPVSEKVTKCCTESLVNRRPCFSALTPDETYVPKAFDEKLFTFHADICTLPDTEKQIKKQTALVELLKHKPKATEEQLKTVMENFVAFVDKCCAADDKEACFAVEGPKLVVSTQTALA

[3] = molecular target: T1, HER2 extracellular domain (HER2-ECD); test: direct binding ELISA, immobilized HER2-ECD, streptavidin-HRP detection
[4] = molecular target: T1, HER2 extracellular domain (HER2-ECD); test: competition ELISA, block of 1.1.FI-Zb binding to immobilized HER2-ECD
Protocol: Following a 1 h incubation the plate was washed with PBS-Tween and Strepavidin/HRP conjugate (Streptavidin-POD, Roche Molecular Biochemicals) was added for 30 min.

B1: 1.1FI-Fc (Fc fusion)
chain: QVYESWGCIGPGCACLQACLGGGSSG
modifications: not fully specified (C-terminus); cysteine pairing not given here; also: fused through linker to Fc of human IgG1 (not in chain)
notes: also called peptide 1.1.FI fused through a linker to Fc of human IgG1; Her2-Fc expression vector product; not shown: Fc portion of the human IgG1 (700 base pair fragment)
IC50 [1]: 3 nM

B2: phage clone 1.1 (peptide)
peptide: YEVEAWDCMGPGCANLFEAH
modifications: not fully specified (C-terminus); cysteine pairing not given here; also: displayed on phage as pVIII fusion
notes: also called Pool 1 clone; not shown: linker and phage coat protein pVIII (polyvalent display)
binding result [2]: binds | binding result (HER3): no binding | binding result (HER4): no binding | binding result (BSA): no binding

B3: 1.1.FI-Zb (biotinylated 1.1.FI-Z) (other)
chain: QVYESWGCIGPGCACLQACL
modifications: not fully specified (C-terminus); cysteine pairing not given here; also: biotinylated with NHS-LC-biotin, sites not given here, fused to Z domain of protein A (not in chain)
EC50 [3]: 2 nM

B4: phage clone 7.1 (peptide)
peptide: CSWVLVQCGGEWWHCCGLGCGLVVNAC
modifications: not fully specified (C-terminus); printed as Cys-Ser-Trp-Val-Leu-Val-Gln-Cys-Gly-Gly-Glu-Trp-Trp-His-Cys-Cys-Gly-Leu-Gly-Cys-Gly-Leu-Val-Val-Asn-Ala-Cys; cysteine pairing not given here; also: displayed on phage as pVIII fusion
notes: also called Pool 7 clone; not shown: linker and phage coat protein pVIII (polyvalent display)
binding result [2]: binds | binding result (HER3): no binding | binding result (HER4): no binding | binding result (BSA): no binding

B5: (1.1FI)2-Z (other)
chain: QVYESWGCIGPGCACLQACLGGGSGGQVYESWGCIGPGCACLQACL-{Z domain of protein A}
modifications: not fully specified; cysteine pairing not given here; also: fused to Z domain of protein A (not in chain)
notes: also called single chain dimer; 1.1FI repeated twice and fused to the Z domain of protein A
IC50 [4]: 20 nM

B6: Peptide HER201 (peptide)
peptide: YSFEGWGCIGPGCAYLFEGH
modifications: disulfide 8-13 (inferred)
notes: also called synthetic peptide of phage-clone 1.1.2
IC50 [4]: 300 nM

B7: Peptide HER212 (peptide)
peptide: QVYESWGCIGPGCACLQACL
modifications: disulfide 8-13, 15-19
notes: Present only as monomer by mass spectrometry; also called synthetic peptide of clone 1.1.FI
IC50 [4]: 9000 nM

B8: phage clone 5.1 (peptide)
peptide: RSCADVASRCWEHCIT
modifications: not fully specified (C-terminus); cysteine pairing not given here; also: displayed on phage as pVIII fusion
notes: also called Pool 5 clone; not shown: linker and phage coat protein pVIII (polyvalent display)
binding result [2]: binds | binding result (HER3): no binding | binding result (HER4): no binding | binding result (BSA): no binding
